From patent EP4814010A1 (Shanghai Huaota Biopharmaceutical Co., Ltd., dated 2026)

Key:
[1] = target: T1, Trypsin inhibitor type 1-S from Glycine max (Glycine max, UniProt P01070 25-205); test: SPR (Biacore 8K), trypsin inhibitor amine-coupled on CM5, antibody as analyte
T1 sequence (looked up): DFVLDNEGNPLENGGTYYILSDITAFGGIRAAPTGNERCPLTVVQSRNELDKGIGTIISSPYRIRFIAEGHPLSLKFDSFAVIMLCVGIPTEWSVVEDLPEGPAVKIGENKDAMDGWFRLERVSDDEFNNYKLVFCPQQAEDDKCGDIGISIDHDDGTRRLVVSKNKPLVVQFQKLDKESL

[2] = target: T2, Cynomolgus IL-11, No Tag (Sino Biological Inc., 90925-CNCE) (cynomolgus, UniProt P20808 22-199); test: SPR (Biacore 8K), cynomolgus IL-11 amine-coupled on CM5, single-cycle kinetics, 1:1 model
T2 construct: Bought protein; also called monkey IL-11
T2 sequence (looked up): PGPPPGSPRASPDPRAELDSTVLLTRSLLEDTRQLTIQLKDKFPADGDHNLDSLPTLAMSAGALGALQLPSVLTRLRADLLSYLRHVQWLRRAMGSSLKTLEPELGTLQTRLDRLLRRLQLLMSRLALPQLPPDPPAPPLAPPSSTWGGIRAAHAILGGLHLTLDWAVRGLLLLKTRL

[3] = target: T3, Mouse IL-11, No Tag (Sino Biological, 50117-MNCE) (mouse, UniProt P47873 22-199); test: SPR (Biacore T200), antibody captured on Protein A chip, IL-11 as analyte, 1:1 model
T3 construct: Bought protein
T3 sequence (looked up): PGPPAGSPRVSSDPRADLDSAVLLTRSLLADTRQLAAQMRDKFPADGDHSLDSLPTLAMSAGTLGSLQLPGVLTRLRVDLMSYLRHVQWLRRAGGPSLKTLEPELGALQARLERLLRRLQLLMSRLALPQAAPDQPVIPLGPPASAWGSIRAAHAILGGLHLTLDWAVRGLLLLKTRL

[4] = target: T4, Human IL-11, No Tag (Sino Biological, 12225-HNCE) (human, UniProt P20809 22-199); test: as above
T4 construct: Bought protein; also called IL-11 Protein, Human, Recombinant
T4 sequence (looked up): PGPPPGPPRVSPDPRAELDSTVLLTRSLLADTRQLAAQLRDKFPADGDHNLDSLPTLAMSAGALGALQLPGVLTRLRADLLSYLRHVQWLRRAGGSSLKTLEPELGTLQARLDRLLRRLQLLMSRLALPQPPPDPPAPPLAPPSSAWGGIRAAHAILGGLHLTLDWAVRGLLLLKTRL

[5] = target: T5, Recombinant Rat Interleukin-11(IL-11), hFc Tag (CusaBio, CSB-MP859561RAd9) (rat, UniProt Q99MF5 22-199); test: BLI (Octet RH96), biotinylated sample on SA sensor, rat IL-11 as analyte, 1:1 global fit
T5 construct: Bought fusion protein; also called Rat IL-11; not shown: hFc tag
T5 sequence (looked up): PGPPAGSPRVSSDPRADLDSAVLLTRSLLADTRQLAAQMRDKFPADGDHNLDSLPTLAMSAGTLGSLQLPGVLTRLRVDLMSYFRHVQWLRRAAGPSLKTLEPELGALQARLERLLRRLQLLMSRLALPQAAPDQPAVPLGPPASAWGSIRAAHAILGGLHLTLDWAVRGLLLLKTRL

B1: anti-IL-11 monoclonal heavy chain antibody 700068 (antibody, V domains shown)
VH: QVQLVESGGGLVQPGGSLRLSCAASGSIASIYTMAWYRQAPGKQRELVALSTNRGATDYADFVKGRFTISRDNAENTMYLQMNSLKPEDTAVYYCNGVASSWSTGFVASWGQGTQVTVSS
notes: also called 700068 heavy chain antibody
For B1, the binding result [1] was “no binding”, the Kd [2] was 4.56 nM and the koff [2] was 0.00221 s⁻¹. It also gave a kon [2] of 485000 M⁻¹ s⁻¹, a Kd [3] of 2.2 nM and a koff [3] of 0.00107 s⁻¹. It also gave a kon [3] of 487000 M⁻¹ s⁻¹, a Kd [4] of 1.93 nM and a koff [4] of 0.00133 s⁻¹. For the same binder, the kon [4] was 689000 M⁻¹ s⁻¹, the Kd [5] was 1.17 nM and the koff [5] was 5.57e-05 s⁻¹. The kon [5] was 47500 M⁻¹ s⁻¹.
